# Assay results as given in publication PMC2756588.
# Experiments:
# Assay in all cases: SPOT array
# Fus1, P11710 = target: T1, Fus1, P11710; conditions: median of control spots 1200
# T1 sequence (P11710 432-512, looked up): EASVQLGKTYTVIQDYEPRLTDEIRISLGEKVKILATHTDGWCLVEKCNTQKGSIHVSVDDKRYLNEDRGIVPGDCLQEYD
# Cyk3, Q07533 = target: T2, Cyk3, Q07533; conditions: median of control spots 1451
# T2 sequence (Q07533 1-83, looked up): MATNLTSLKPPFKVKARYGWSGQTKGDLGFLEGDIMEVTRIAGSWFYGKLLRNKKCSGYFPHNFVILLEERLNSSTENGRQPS
# Cdc25, P04821 = target: T3, Cdc25, P04821; conditions: median of control spots 969
# T3 sequence (P04821 50-136, looked up): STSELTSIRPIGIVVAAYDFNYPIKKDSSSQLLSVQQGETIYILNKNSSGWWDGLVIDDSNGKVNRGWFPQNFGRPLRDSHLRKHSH
# Bbc1, P47068 = target: T4, Bbc1, P47068; conditions: median of control spots 796
# T4 sequence (P47068 1-78, looked up): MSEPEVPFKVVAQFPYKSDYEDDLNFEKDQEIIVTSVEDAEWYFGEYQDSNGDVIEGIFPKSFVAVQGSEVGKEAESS
# Bzz1-1, P38822 = target: T5, Bzz1-1, P38822; conditions: median of control spots 4446
# T5 sequence (P38822 478-572, looked up): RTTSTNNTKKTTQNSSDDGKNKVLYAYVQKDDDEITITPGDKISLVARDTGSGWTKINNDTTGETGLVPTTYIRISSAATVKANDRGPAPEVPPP
# Myo5, Q04439 = target: T6, Myo5, Q04439; conditions: median of control spots 471
# T6 sequence (Q04439 1072-1160, looked up): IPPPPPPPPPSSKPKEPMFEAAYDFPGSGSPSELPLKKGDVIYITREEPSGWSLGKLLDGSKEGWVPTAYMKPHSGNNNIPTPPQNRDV
# Bem1-1, P29366 = conditions: median of control spots 4282
# Chain of Bem1-1, P29366 (P29366 55-141): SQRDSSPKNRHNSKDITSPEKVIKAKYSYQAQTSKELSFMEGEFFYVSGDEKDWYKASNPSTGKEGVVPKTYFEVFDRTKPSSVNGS
# Nbp2, Q12163 = target: T7, Nbp2, Q12163; conditions: median of control spots 357
# T7 sequence (Q12163 103-180, looked up): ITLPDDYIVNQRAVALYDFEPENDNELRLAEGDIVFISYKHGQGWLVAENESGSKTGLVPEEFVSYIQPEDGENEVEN
# Boi2, P39969 = target: T8, Boi2, P39969; conditions: median of control spots 1161
# T8 sequence (P39969 32-116, looked up): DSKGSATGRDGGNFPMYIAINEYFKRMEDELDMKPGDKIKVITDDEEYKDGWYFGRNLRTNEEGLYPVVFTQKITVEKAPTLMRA
# Boi1, P38041 = target: T9, Boi1, P38041; conditions: median of control spots 1162
# T9 sequence (P38041 1-86, looked up): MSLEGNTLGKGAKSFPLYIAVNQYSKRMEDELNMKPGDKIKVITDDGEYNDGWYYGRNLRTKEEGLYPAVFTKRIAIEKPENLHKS
# Sla1-3, P32790 = target: T10, Sla1-3, P32790; conditions: median of control spots 5475
# T10 sequence (P32790 344-424, looked up): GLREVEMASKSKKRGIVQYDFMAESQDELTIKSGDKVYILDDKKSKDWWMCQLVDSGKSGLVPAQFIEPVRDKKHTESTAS
# Abp1, P15891 = target: T11, Abp1, P15891; conditions: median of control spots 935
# T11 sequence (P15891 535-592, looked up): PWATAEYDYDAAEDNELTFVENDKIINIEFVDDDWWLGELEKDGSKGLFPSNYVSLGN
# Sla1-2, P32790 = target: T12, Sla1-2, P32790; conditions: median of control spots 712
# T12 sequence (P32790 60-140, looked up): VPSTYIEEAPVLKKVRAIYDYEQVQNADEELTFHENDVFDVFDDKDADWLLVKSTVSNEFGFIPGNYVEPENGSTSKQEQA
# Hse1, P38753 = target: T13, Hse1, P38753; conditions: median of control spots 1727
# T13 sequence (P38753 208-285, looked up): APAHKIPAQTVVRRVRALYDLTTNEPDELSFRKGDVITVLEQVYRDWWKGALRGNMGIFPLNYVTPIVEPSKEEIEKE
# Sho1, P40073 = conditions: median of control spots 1148
# Chain of Sho1, P40073 (P40073 287-367): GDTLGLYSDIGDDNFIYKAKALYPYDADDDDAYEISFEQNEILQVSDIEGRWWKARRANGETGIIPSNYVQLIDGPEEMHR
# Lsb1, P53281 = target: T14, Lsb1, P53281; conditions: median of control spots 388
# T14 sequence (P53281 45-122, looked up): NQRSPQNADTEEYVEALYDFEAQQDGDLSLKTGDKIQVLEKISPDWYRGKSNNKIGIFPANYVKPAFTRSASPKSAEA
# Pex13, P80667 = target: T15, Pex13, P80667; conditions: median of control spots 1341
# T15 sequence (P80667 295-386, looked up): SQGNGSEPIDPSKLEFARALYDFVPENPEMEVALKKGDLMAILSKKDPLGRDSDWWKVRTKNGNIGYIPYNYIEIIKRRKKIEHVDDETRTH
# Rvs167, P39743 = conditions: median of control spots 2707
# Chain of Rvs167, P39743 (P39743 419-482): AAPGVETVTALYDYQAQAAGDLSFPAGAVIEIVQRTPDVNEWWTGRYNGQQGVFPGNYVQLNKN
# Bem1-2, P29366 = conditions: median of control spots 4347
# Chain of Bem1-2, P29366 (P29366 139-227): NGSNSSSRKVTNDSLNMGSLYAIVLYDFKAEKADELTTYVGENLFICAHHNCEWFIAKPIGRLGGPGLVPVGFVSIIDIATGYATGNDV
# Lsb3, P43603 = target: T16, Lsb3, P43603; conditions: median of control spots 406
# T16 sequence (P43603 385-451, looked up): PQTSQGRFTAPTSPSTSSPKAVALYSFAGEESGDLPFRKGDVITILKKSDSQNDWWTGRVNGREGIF
# Bud14, P27637 = target: T17, Bud14, P27637; conditions: median of control spots 956
# T17 sequence (P27637 247-328, looked up): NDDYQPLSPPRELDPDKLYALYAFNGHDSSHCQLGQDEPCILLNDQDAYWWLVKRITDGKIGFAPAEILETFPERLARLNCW
# GST = conditions: median of control spots 978
# Lsb4, P32793 = target: T18, Lsb4, P32793; conditions: median of control spots 397
# T18 sequence (P32793 402-468, looked up): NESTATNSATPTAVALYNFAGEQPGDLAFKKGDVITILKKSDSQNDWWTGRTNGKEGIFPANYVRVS
# Bzz1-2, P38822 = target: T19, Bzz1-2, P38822; conditions: median of control spots 4538
# T19 sequence (P38822 568-633, looked up): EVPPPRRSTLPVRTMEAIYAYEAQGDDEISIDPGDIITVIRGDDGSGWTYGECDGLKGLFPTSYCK
# Pin3, Q06449 = target: T20, Pin3, Q06449; conditions: median of control spots 2171
# T20 sequence (Q06449 53-122, looked up): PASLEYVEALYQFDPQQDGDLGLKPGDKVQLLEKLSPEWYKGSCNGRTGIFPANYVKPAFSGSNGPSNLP
# Hof1, Q05080 = target: T21, Hof1, Q05080; conditions: median of control spots 4086
# T21 sequence (Q05080 590-669, looked up): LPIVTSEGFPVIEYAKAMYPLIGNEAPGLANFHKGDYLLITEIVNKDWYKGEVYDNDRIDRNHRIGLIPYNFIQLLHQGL
# Myo3, P36006 = conditions: median of control spots 468
Binder,"SPOT intensity (Fus1, P11710)","SPOT intensity (Cyk3, Q07533)","SPOT intensity (Cdc25, P04821)","SPOT intensity (Bbc1, P47068)","SPOT intensity (Bzz1-1, P38822)","SPOT intensity (Myo5, Q04439)","SPOT intensity (Bem1-1, P29366)","SPOT intensity (Nbp2, Q12163)","SPOT intensity (Boi2, P39969)","SPOT intensity (Boi1, P38041)","SPOT intensity (Sla1-3, P32790)","SPOT intensity (Abp1, P15891)","SPOT intensity (Sla1-2, P32790)","SPOT intensity (Hse1, P38753)","SPOT intensity (Sho1, P40073)","SPOT intensity (Lsb1, P53281)","SPOT intensity (Pex13, P80667)","SPOT intensity (Rvs167, P39743)","SPOT intensity (Bem1-2, P29366)","SPOT intensity (Lsb3, P43603)",further results
NTMKKRPAPPSLPSL,0,1,58,15,60,115,0,120,2,7,11,205,1,53,95,52,80,9,56,12,"SPOT intensity (Bud14, P27637): 21; SPOT intensity (GST): 0; SPOT intensity (Lsb4, P32793): 63; SPOT intensity (Bzz1-2, P38822): 1440; SPOT intensity (Pin3, Q06449): 57; SPOT intensity (Hof1, Q05080): 489; SPOT intensity (Myo3, P36006): 99"
YLTRPLPSTPNEDSR,0,0,0,0,0,0,0,0,1,0,1,0,0,6,1320,8,297,15,12,139,"SPOT intensity (Bud14, P27637): 1; SPOT intensity (GST): 0; SPOT intensity (Lsb4, P32793): 598; SPOT intensity (Bzz1-2, P38822): 0; SPOT intensity (Pin3, Q06449): 0; SPOT intensity (Hof1, Q05080): 0; SPOT intensity (Myo3, P36006): 0"
RKRAPTPPAPSRSEK,14,1,15,105,27,0,1,283,0,1,24,274,0,3,99,1290,6,9,0,8,"SPOT intensity (Bud14, P27637): 6; SPOT intensity (GST): 1; SPOT intensity (Lsb4, P32793): 29; SPOT intensity (Bzz1-2, P38822): 946; SPOT intensity (Pin3, Q06449): 7; SPOT intensity (Hof1, Q05080): 0; SPOT intensity (Myo3, P36006): 20"
FYHRPAPKPPVTKKV,0,0,0,45,16,12,0,314,0,0,2040,114,0,78,8,63,143,0,4210,5,"SPOT intensity (Bud14, P27637): 0; SPOT intensity (GST): 0; SPOT intensity (Lsb4, P32793): 3; SPOT intensity (Bzz1-2, P38822): 186; SPOT intensity (Pin3, Q06449): 19; SPOT intensity (Hof1, Q05080): 0; SPOT intensity (Myo3, P36006): 37"
